Reference: PMC4918325, “Mto2 multisite phosphorylation inactivates non-spindle microtubule nucleation complexes during mitosis” (Nature Communications, 2015)

Target: T1, Mto1-SZZ (protein A-tagged Mto1) (Schizosaccharomyces pombe, UniProt O94488 1-1115)
T1 construct: Mto1, Schizosaccharomyces pombe; Bait of all IgG-bead pulldowns; also called SZZ-tagged Mto1; source: S. pombe, gene tagged by PCR-based methods, in cell extract
T1 sequence (looked up): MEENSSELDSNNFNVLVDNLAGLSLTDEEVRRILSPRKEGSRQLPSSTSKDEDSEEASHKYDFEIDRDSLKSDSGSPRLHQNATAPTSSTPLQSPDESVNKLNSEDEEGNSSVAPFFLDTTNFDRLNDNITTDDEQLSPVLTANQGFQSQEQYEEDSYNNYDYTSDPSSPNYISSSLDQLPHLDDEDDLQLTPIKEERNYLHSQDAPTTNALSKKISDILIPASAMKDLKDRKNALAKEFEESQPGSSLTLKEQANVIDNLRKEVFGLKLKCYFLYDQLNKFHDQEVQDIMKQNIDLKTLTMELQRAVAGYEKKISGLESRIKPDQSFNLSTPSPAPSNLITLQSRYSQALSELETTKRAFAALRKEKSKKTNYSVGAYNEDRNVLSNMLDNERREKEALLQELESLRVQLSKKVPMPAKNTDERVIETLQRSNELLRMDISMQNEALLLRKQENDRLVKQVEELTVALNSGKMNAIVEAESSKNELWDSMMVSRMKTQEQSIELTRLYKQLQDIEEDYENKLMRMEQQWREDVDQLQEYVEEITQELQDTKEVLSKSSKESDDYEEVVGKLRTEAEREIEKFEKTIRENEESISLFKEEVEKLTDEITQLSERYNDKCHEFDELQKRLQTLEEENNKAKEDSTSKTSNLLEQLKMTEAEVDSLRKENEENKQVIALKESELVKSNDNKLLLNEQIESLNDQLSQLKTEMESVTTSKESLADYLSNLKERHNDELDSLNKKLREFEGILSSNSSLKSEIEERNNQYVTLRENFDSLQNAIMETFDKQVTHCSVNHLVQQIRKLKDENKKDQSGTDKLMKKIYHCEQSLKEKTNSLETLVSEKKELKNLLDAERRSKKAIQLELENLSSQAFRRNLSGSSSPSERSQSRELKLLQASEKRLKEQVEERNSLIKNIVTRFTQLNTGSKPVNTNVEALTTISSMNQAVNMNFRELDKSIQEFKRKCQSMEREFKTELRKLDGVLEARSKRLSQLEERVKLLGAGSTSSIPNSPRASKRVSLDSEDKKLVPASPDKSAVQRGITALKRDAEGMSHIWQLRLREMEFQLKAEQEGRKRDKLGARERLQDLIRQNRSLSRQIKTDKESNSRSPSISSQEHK
Assay: pull-down; IgG-coupled Dynabeads pull Mto1-SZZ from extracts of interphase (asynchronous) S. pombe cells (mto2+, mto2[6A], mto2[13A], mto2[17A], mto2[24A]); 90 min at 4 °C; lysis buffer 25 mM sodium phosphate pH 7.5, 100 mM KCl, 0.5 mM EDTA, 0.2% Triton X-100 with protease and phosphatase inhibitors; western blot
Conditions: partners not purified

fold change of γ-tubulin copurifying with Mto1-SZZ in mto2[6A] cells relative to wild-type cells: ~1.5 fold
fold change of γ-tubulin copurifying with Mto1-SZZ in mto2[13A] cells relative to wild-type cells: ~1.5 fold
fold change of γ-tubulin copurifying with Mto1-SZZ in mto2[17A] cells relative to wild-type cells: ~3 fold
B1: Gtb1 (S. pombe γ-tubulin) (natural protein, UniProt P25295 1-446, looked up)
chain: MGREIITLQAGQCGNQIGSQFWQQLCLEHGIGPDGTLESFATEGVDRKDVFFYQSDDTRYIPRAILIDLEPRVVNNILSDTYGSLYNPENILITKNGGGAGNNWANGYSHAERIFEDIMDMIDREADGSDSLEGFSLLHSIAGGTGSGLGSFLLERLNDRYPKKIIQTYSVFPNSQSVSDVVVQPYNSLLALKRLTLNADSVVVLDNAALAHIAADRLHTQNPTFHQQNQLVSTVMSASTTTLRYPGYMNNDLVSIIASLIPSPRCHFLLTSYTPFTNQQVEEAKAIRKTTVLDVMRRLLLPKNQMVSVNPSKKSCFISILDIIQGEADPADVHKSLLRIRERRYASFIPWGPASIQVALSKKSPYIKTNHRVSGLMLANHTSIASLFKRTLDQYDRLRKRNAFLEQYKKEAIFEDDLNEFDSSRDVVADLINEYEACEDPNYLSL
notes: γ-tubulin Gtb1, Schizosaccharomyces pombe; Detected by anti-γ-tubulin blot (GTU-88); also called read-out of the γ-tubulin complex (γ-TuC); source: endogenous, S. pombe cell extract
